In publication PMC6646387, “Identification of intracellular cavin target proteins reveals cavin-PP1alpha interactions regulate apoptosis” (Nature Communications, 2019):

Molecular target: T1, GFP-PP1α (UniProt P62136 1-330)
T1 construct: serine/threonine-protein phosphatase PP1alpha catalytic subunit (PP1α); construct provided by the Trinkle-Mulcahy Laboratory; printed both as GFP-PP1α and PP1α-GFP; also called PP1α-GFP; PP1alpha-GFP; source: MCF-7 or A431, transfected, in lysate
Assay: single-molecule coincidence detection; PNS fraction of MCF-7 cells cotransfected with GFP-PP1α and Cherry-Cavin1 or Cherry-Cavin3, in PBS, diluted to about 1 nM; two-colour confocal detection; C = mCherry/(GFP+mCherry); oligomeric state from burst brightness
Details: partners not purified

T1 sequence (P62136 whole entry): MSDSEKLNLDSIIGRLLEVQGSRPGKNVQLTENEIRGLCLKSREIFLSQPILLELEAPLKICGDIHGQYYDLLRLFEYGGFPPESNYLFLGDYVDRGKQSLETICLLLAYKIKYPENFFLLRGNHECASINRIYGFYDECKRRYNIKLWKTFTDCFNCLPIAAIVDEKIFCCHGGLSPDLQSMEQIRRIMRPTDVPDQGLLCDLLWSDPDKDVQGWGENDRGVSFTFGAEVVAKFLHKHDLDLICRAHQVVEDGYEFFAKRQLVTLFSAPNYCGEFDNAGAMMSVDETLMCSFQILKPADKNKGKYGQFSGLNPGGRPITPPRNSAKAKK

B1: mCherry-Cavin3 (natural protein, mouse, UniProt Q91VJ2 1-260, looked up)
chain: MGESALEPGPVPETPAGGPVHAVTVVTLLEKLATMLEALRERQGGLAERQGGLAGSVRRIQSGLGALSRSHDTTSNTLTQLLAKAERVGSHADAAQERAVRRAAQVQRLEANHGLLVARGKLHVLLFKEETEIPARAFQKVPELLGPEDQLVLGPDQPEDEVGESSEEEPVESRAQRLRRTGLQKVQSLKRALSSRKAAQPTPVKPPRVGPVRSSEGPSEGQPAAQPEMESELETALEPEPPQPTKEDPEKPVLQIESAA
notes: Murine Cavin-3 (PRKCDBP), amplified from NIH-3T3 fibroblast cDNA, in an mCherry vector; also called mCherry-tagged Cavin3; source: MCF-7, transfected, in lysate (cytosolic or PNS fraction)
  coincidence ratio: 0.5
  stoichiometry N: 1

B2: mCherry-Cavin1 (natural protein, mouse, UniProt O54724 1-392, looked up)
chain: MEDVTLHIVERPYSGFPDASSEGPEPTQGEARATEEPSGTGSDELIKSDQVNGVLVLSLLDKIIGAVDQIQLTQAQLEERQAEMEGAVQSIQGELSKLGKAHATTSNTVSKLLEKVRKVSVNVKTVRGSLERQAGQIKKLEVNEAELLRRRNFKVMIYQDEVKLPAKLSVSKSLKESEALPEKEGDELGEGERPEDDTAAIELSSDEAVEVEEVIEESRAERIKRSGLRRVDDFKKAFSKEKMEKTKVRTRENLEKTRLKTKENLEKTRHTLEKRMNKLGTRLVPVERREKLKTSRDKLRKSFTPDHVVYARSKTAVYKVPPFTFHVKKIREGEVEVLKATEMVEVGPEDDEVGAERGEATDLLRGSSPDVHTLLEITEESDAVLVDKSDSD
notes: Murine Cavin-1 (PTRF, caveolae-associated protein 1); oligomeric in MCF-7 cells by burst brightness; also called mCherry-tagged Cavin1; source: MCF-7, transfected, in lysate (cytosolic or PNS fraction)
  coincidence ratio: 0.7
